Source: article doi:10.1101/293530

Columns and labels:
[1] = target: mCherry-IZ-sCD95L; test: fluorescence correlation spectroscopy
[2] = target: mCherry-sCD95L; test: fluorescence correlation spectroscopy
[3] = target: T1, CD95-mEos2 (human), P25445; test: quantitative PALM; conditions: remark: other sources report otherwise
T1 chain: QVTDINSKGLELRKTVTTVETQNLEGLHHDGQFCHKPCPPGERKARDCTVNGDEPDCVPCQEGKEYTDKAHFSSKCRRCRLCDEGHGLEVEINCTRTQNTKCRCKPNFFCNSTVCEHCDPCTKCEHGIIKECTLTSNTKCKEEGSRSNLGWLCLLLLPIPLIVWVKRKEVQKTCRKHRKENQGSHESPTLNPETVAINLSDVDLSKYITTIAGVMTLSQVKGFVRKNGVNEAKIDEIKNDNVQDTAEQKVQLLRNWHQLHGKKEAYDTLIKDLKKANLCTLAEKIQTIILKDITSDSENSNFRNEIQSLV

mCherry-IZ-sCD95L (ligand)
stoichiometry N [1]: 3

mCherry-sCD95L (ligand)
stoichiometry N [2]: 3

B1: CD95-mEos2, P25445 26-335 (receptor)
chain: T1 chain
fraction of dimers [3]: 42%
fraction of monomers [3]: 58%
